Measured values published in paper PMC8590011, “WRN helicase safeguards deprotected replication forks in BRCA2-mutated cancer cells”.

Molecular target: FLAG-WRN (wild type) (UniProt Q14191 1-1432)
Assay: EMSA; 2 mM ATPgS, 5 mM MgCl2; affinity similar to the K577M/E84A mutant; Kd is only in Supp Fig 1e, value not in material; 35 mM Tris-HCl pH 7.5, 20 mM KCl, 5 mM MgCl2, 0.1 mg/ml BSA, 2 mM DTT, 5% glycerol, 2 mM ATPgS, 2 nM DNA, 15 min at RT; 5% 1x TBE native PAGE at 4 C
Settings: protein: recombinant; tags: N-terminal FLAG (6xHis removed with TEV); label: 5' 32P on oligo B (as described for the CF preparation); four-strand regressed fork: AB partial duplex annealed to CD partial duplex

Sequence of FLAG-WRN (wild type) (Q14191 whole entry): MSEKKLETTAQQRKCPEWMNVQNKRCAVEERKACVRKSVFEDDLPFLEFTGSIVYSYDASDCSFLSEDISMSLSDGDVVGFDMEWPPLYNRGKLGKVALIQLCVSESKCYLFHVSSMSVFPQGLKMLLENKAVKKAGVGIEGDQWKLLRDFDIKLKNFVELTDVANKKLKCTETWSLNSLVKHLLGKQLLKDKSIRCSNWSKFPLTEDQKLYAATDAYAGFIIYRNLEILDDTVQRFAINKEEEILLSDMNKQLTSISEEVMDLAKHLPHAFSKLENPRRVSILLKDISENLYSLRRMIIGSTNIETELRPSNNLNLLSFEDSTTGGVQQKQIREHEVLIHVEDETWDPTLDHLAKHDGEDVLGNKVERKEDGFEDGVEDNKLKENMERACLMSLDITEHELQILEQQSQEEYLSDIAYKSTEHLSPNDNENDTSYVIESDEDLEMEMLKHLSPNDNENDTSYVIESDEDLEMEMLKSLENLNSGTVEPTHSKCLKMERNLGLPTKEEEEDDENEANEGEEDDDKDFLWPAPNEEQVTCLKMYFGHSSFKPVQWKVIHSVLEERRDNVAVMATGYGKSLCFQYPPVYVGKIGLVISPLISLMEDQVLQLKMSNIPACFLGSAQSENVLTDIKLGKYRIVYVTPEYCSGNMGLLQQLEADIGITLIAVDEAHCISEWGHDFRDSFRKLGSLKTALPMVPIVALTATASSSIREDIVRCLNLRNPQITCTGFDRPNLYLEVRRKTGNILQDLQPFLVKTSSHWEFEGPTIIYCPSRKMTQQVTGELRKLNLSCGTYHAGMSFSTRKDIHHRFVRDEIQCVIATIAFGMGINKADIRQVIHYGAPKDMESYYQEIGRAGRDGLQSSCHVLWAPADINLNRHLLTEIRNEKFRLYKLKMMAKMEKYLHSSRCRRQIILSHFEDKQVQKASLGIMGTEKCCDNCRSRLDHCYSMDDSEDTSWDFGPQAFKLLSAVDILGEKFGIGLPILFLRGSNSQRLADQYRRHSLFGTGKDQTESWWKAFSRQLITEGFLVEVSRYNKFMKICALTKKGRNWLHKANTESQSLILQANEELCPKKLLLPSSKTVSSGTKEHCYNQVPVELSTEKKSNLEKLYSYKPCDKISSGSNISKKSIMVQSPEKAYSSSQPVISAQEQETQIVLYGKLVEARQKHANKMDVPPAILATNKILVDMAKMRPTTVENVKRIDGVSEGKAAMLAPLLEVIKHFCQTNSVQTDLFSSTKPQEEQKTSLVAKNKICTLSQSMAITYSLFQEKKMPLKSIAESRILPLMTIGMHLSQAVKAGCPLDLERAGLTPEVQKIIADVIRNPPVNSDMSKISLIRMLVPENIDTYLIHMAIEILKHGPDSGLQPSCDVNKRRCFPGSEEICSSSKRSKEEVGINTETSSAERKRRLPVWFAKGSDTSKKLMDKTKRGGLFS

B1: chicken-foot (CF) reversed fork substrate, oligos A+B+C+D (structured_DNA)
DNA 1: CTTTAGCTGCATATTTACAACATGTTGACCTTCAGTACAATCTGCTCTGATGCCGCATAGTGTCATGCCAGAGCTTTGTAC
DNA 2: CGGGTGTCGGGGCGCATGACACTATGCGGCATCAGAGCAGATTGTACTGAAGGTCAACATGTTGTAAATATGCAGCTAAAG
DNA 3: GTACAAAGCTCTGGCATGATACTATGCGGCATCAGAGCAGATT
DNA 4: TCAGTACAATCTGCTCTGATGCCGCATAGTATCATGCGCCCCGACACCCG
modifications: iMe-isodC at position 38 of oligo A (written as C)
Question: Does B1 bind?
Answer: Result: binds
